“And” between values parts separate entries of the source, which are not always exact repeats. Equal entries are not always repeated. Where two headings read alike, the source gives them in different places.

Data set [1] deals with BRIL (apocytochrome b562RIL)-fusion construct of truncated AceI (residues 36 to 179) (A. baumannii). As to the kind of experiment: native MS.
Data set [2] concerns the target BRIL (apocytochrome b562RIL)-fusion construct of full-length AceI (residues 1 to 179) (A. baumannii) (UniProt P0DUT9). As to the kind of experiment: native MS.
The target in data set [3] is AceI (Acinetobacter chlorhexidine efflux protein I), truncated form, residues 36 to 179, with C-term (A. baumannii). As to the kind of experiment: native MS.
Data set [4] deals with E15Q AceI mutant (A. baumannii). As to the kind of experiment: native MS.
The target of data set [5] is BRIL (apocytochrome b562RIL)-fusion of truncated AceI (residues 36 to 179) (A. baumannii). As to the kind of experiment: native MS.
In data set [6] the target is AceI (Acinetobacter chlorhexidine efflux protein I) (Acinetobacter baumannii, UniProt P0DUT9, E15Q). As to the kind of experiment: native mass spectrometry of purified mutant. The class given is binding.
In data set [7] the target is AceR (Acinetobacter chlorhexidine efflux protein regulator) (Acinetobacter baumannii, UniProt P0DUU5). As to the kind of experiment: isothermal titration calorimetry (AceR^CTD); native MS titration (AceR^FL). The class given is binding. From the text: isothermal titration calorimetry (AceR^CTD); native MS titration (AceR^FL) on AceR (Acinetobacter chlorhexidine efflux protein regulator) | we used isothermal titration calorimetry.

For data set [8], the target named is T1, AceI (Acinetobacter chlorhexidine efflux protein I) (Acinetobacter baumannii, UniProt P0DUT9).
T1 construct: amino acid residues 36 to 179, with a C-terminal hexahistidine tag
As to the kind of experiment: native mass spectrometry of purified protein in detergent. Type of data set: binding.

For data set [9], the target named is BRIL (apocytochrome b562RIL)-fusion of full-length AceI (residues 1 to 179) (A. baumannii) (UniProt P0DUT9). As to the kind of experiment: native MS.
Data set [10] has as its target AceI (Acinetobacter chlorhexidine efflux protein I), truncated form, residues 36 to 179 with a C-ter (A. baumannii). As to the kind of experiment: native MS.
Data set [11] deals with the molecule itself. As to the kind of experiment: native MS.
Data set [12] concerns the molecule itself. As to the kind of experiment: native MS. The source holds these as a separate data set.
Data set [13] deals with the molecule itself. As to the kind of experiment: native MS. The source holds these as a separate data set.
The target in data set [14] is T2, AceRFL (BRIL-AceR full length) (Acinetobacter baumannii, UniProt P0DUU5 1-297).
T2 sequence: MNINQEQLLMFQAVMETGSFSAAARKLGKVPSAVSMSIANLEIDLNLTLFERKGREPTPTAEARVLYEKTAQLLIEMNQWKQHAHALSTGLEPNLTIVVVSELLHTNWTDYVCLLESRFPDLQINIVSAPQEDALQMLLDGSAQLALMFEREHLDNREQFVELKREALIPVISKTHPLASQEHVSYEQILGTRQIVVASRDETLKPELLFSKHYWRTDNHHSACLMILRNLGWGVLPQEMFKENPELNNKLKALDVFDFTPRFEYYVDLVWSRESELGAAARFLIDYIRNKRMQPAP
As to the kind of experiment: native MS; no chlorhexidine; one RS2 per dimer; native MS; 200 mM ammonium acetate, pH 8.0 (AceRFL-DNA); temperature not stated. The note with it: protein: recombinant; tags: N-terminal BRIL (apocytochrome b562RIL) fusion; 6xHis; chain copies: 2; blunt.

The target of data set [15] is T2, AceRFL (BRIL-AceR full length). As to the kind of experiment: native MS; 2 uM AceRFL, 2 uM RS1, no chlorhexidine; one RS1 per dimer; native MS; 200 mM ammonium acetate, pH 8.0 (AceRFL-DNA); temperature not stated. The note with it: protein: recombinant; tags: N-terminal BRIL (apocytochrome b562RIL) fusion; 6xHis; chain copies: 2; blunt.

Regarding “BRIL (apocytochrome b562RIL)-fusion construct of truncated AceI (residues 36 to 179) (domain or fragment)”, the stoichiometry N in [1] is 2.
As to “BRIL (apocytochrome b562RIL)-fusion construct of full-length AceI (residues 1 to 179) (from UniProt P0DUT9 1-144) (natural protein)”, in data set [2], the stoichiometry N is 2.
Turning to “AceI (Acinetobacter chlorhexidine efflux protein I), truncated form, residues 36 to 179, with C-term (domain or fragment)”, in data set [3], the equilibrium dissociation constant (Kd) turned out to be 0.92 µM and the stoichiometry N turned out to be 2.
E15Q AceI mutant (domain or fragment): the dissociation constant Kd in data set [4] is 17.5 µM and 18.4 µM.
Take “BRIL (apocytochrome b562RIL)-fusion of truncated AceI (residues 36 to 179) (domain or fragment)”: in [5], the stoichiometry N is 2.
Turning to `[H]/N=C(\N/C(=N/[H])NCCCCCCNC(=N)NC(=N)Nc1ccc(Cl)cc1)Nc1ccc(Cl)cc1` [chlorhexidine], in data set [6], the “native mass spectrometry of purified mutant” value is “E15Q mutant and found that the binding of chlorhexidine also increased the dimer population of the mutant”. In [7], this molecule registered a Kd of roughly 16 µM. In data set [8], the “native mass spectrometry of purified protein in detergent” value is reported as “when tested with chlorhexidine, we observed multiple low-occupancy binding of up to three chlorhexidine molecules”.
On to “BRIL (apocytochrome b562RIL)-fusion of full-length AceI (residues 1 to 179) (from UniProt P0DUT9 1-144) (natural protein)”, for which, in [9], the stoichiometry N was 2.
As to “AceI (Acinetobacter chlorhexidine efflux protein I), truncated form, residues 36 to 179 with a C-ter (domain or fragment)”, in data set [10], the Kd worked out at 5.69 µM and the stoichiometry N worked out at 2.

B1: AceR^FL: full-length AceR (Acinetobacter chlorhexidine efflux protein regulator) with a Bril fusion at the N terminus (natural protein)
chain: T2 sequence
notes: source: E. coli C43(DE3), purified (HisTrap-HP)
With B1, the “stoichiometry N” value was 2 and 4 in “native MS [11]”; 4 in “native MS [12]”.

B2: AceR^FL: full-length AceR (Acinetobacter chlorhexidine efflux protein regulator) with a Bril fusion at the N terminus (natural protein)
chain: T2 sequence
notes: source: expressed in high yields, purified
As for B2, in “native MS [13]”, the “stoichiometry N” value is 2 and 4.

B3: RS2 (site 2, 34 bp) (dsDNA)
DNA 1: ACTCTTCAACAAGAACTAATTATAAGTAGACAGT
DNA 2: ACTGTCTACTTATAATTAGTTCTTGTTGAAGAGT
Regarding B3, the binding result in [14] was “binds”.

B4: RS1 (site 1, 22 bp) (dsDNA)
DNA 1: TTTTTTAACTTTCTTGGACTAA
DNA 2: TTAGTCCAAGAAAGTTAAAAAA
B4: in [15], the binding result was “binds”.

B5: AceR^CTD: inducer-binding domain of AceR (amino acid residues 90 to 297) (domain or fragment)
chain: GLEPNLTIVVVSELLHTNWTDYVCLLESRFPDLQINIVSAPQEDALQMLLDGSAQLALMFEREHLDNREQFVELKREALIPVISKTHPLASQEHVSYEQILGTRQIVVASRDETLKPELLFSKHYWRTDNHHSACLMILRNLGWGVLPQEMFKENPELNNKLKALDVFDFTPRFEYYVDLVWSRESELGAAARFLIDYIRNKRMQPAP
notes: as for B1
For B5, the “stoichiometry N” value in “native MS [11]” stood at 2.

B6: AceR^CTD: inducer-binding domain of AceR (amino acid residues 90 to 297) (domain or fragment)
chain: B5 chain
On to B6, for which the “stoichiometry N” value in “native MS [13]” was determined as 2.

The values are drawn from paper PMC7382281 (Proceedings of the National Academy of Sciences of the …, 2020).
